Source: the supplement of paper PMC12458215
± gives the uncertainty stated by the source.

Tested on: HEK293T
Experiment: plasma membrane surface immunostaining intensity (anti-HA, deep receptor scanning) (arbitrary fluorescence units); higher = higher plasma membrane expression

Sequence | plasma membrane surface immunostaining intensity (GPCR class: A (Olfactory)) | plasma membrane surface immunostaining intensity (GPCR class: A) | also measured
MAWENQTFNSDFLLLGIFNHSPTHTFLFFLVLAIFSVAFMGNSIMVLLIYLDTQLHTPMYFLLSQLSLMDLMLICTTVPKMAFNYLSGSKSISMAGCATQIFFYISLLGSECFLLAVMSYDRYTAICHPLRYTNLMRPKICGLMTAFSWILGSTDGIIDAVATFSFSYCGSREIAHFCCDFPSLLILSCNDTSIFEEVIFICCIVMLVFPVAIIITSYARVILAVIHMGSGEGRRKAFTTCSSHLMVVGMYYGAGLFMCIQPTSHHSPMQDKMVSVFYTIVTPMLNPLIYSLRNKEVTRALMKILGKGKSGD [OR2M7] | 157 ± 44 | – | –
MEGNQTWITDITLLGFQVGPALAILLCGLFSVFYTLTLLGNGVIFGIICLDSKLHTPMYFFLSHLAIIDMSYASNNVPKMLANLMNQKRTISFVPCIMQTFLYLAFAVTECLILVVMSYDRYVAICHPFQYTVIMSWRVCTILVLTSWSCGFALSLVHEILLLRLPFCGPRDVNHLFCEILSVLKLACADTWVNQVVIFATCVFVLVGPLSLILVSYMHILGAILKIQTKEGRIKAFSTCSSHLCVVGLFFGIAMVVYMVPDSNQREEQEKMLSLFHSVFNPMLNPLIYSLRNAQLKGALHRALQRKRSMRTVYGLCL [OR2A2] | 129 ± 17 | – | –
MARENSTFNSDFILLGIFNHSPTHTFLFFLVLAIFSVAFMGNSVMVLLIYLDTQLHTPMYLLLSQLSLMDLMLICTTVPKMAFNYLSGSKSISMAGCATQIFFYTSLLGSECFLLAVMAYDRYTAICHPLRYTNLMSPKICGLMTAFSWILGSTDGIIDVVATFSFSYCGSREIAHFFCDFPSLLILSCSDTSIFEKILFICCIVMIVFPVAIIIASYARVILAVIHMGSGEGRRKAFTTCSSHLLVVGMYYGAALFMYIRPTSDRSPTQDKMVSVFYTILTPMLNPLIYSLRNKEVTRAFMKILGKGKSGE [OR2M3] | 138 ± 19 | – | –
MDISEGNKTLVTEFVLTGLTDRPWLHVLFFVVFLVVYLITMVGNLGLIVLIWNDPHLHMPMYLFLGGLAFSDACTSTSITPRMLVNFLDKTAMISLAECITQFYFFASSATTECFLLVMMAYDRYVAICNPLLYPVMMSNKLSAQLLSISYVIGFLHPLVHVSLLLRLTFCRFNIIHYFYCEILQLFKISCNGPSINALMIFIFGAFIQIPTLMTIIISYTRVLFDILKKKSEKGRSKAFSTCGAHLLSVSLYYGTLIFMYVRPASGLAEDQDKVYSLFYTIIIPLLNPFIYSLRNKKVMHALRRVIRK [OR5AC2] | 166 ± 48 | – | –
MDTSRLGVLLSLPVLLQLATGGSSPRSGVLLRGCPTHCHCEPDGRMLLRVDCSDLGLSELPSNLSVFTSYLDLSMNNISQLLPNPLPSLRFLEELRLAGNALTYIPKGAFTGLYSLKVLMLQNNQLRHVPTEALQNLRSLQSLRLDANHISYVPPSCFSGLHSLRHLWLDDNALTEIPVQAFRSLSALQAMTLALNKIHHIPDYAFGNLSSLVVLHLHNNRIHSLGKKCFDGLHSLETLDLNYNNLDEFPTAIRTLSNLKELGFHSNNIRSIPEKAFVGNPSLITIHFYDNPIQFVGRSAFQHLPELRTLTLNGASQITEFPDLTGTANLESLTLTGAQISSLPQTVCNQLPNLQVLDLSYNLLEDLPSFSVCQKLQKIDLRHNEIYEIKVDTFQQLLSLRSLNLAWNKIAIIHPNAFSTLPSLIKLDLSSNLLSSFPITGLHGLTHLKLTGNHALQSLISSENFPELKVIEMPYAYQCCAFGVCENAYKISNQWNKGDNSSMDDLHKKDAGMFQAQDERDLEDFLLDFEEDLKALHSVQCSPSPGPFKPCEHLLDGWLIRIGVWTIAVLALTCNALVTSTVFRSPLYISPIKLLIGVIAAVNMLTGVSSAVLAGVDAFTFGSFARHGAWWENGVGCHVIGFLSIFASESSVFLLTLAALERGFSVKYSAKFETKAPFSSLKVIILLCALLALTMAAVPLLGGSKYGASPLCLPLPFGEPSTMGYMVALILLNSLCFLMMTIAYTKLYCNLDKGDLENIWDCSMVKHIALLLFTNCILNCPVAFLSFSSLINLTFISPEVIKFILLVVVPLPACLNPLLYILFNPHFKEDLVSLRKQTYVWTRSKHPSLMSINSDDVEKQSCDSTQALVTFTSSSITYDLPPSSVPSPAYPVTESCHLSSVAFVPCL [LGR5] | – | 283 ± 25 | –
MTSNFSQPVVQLCYEDVNGSCIETPYSPGSRVILYTAFSFGSLLAVFGNLLVMTSVLHFKQLHSPTNFLIASLACADFLVGVTVMLFSMVRTVESCWYFGAKFCTLHSCCDVAFCYSSVLHLCFICIDRYIVVTDPLVYATKFTVSVSGICISVSWILPLTYSGAVFYTGVNDDGLEELVSALNCVGGCQIIVSQGWVLIDFLLFFIPTLVMIILYSKIFLIAKQQAIKIETTSSKVESSSESYKIRVAKRERKAAKTLGVTVLAFVISWLPYTVDILIDAFMGFLTPAYIYEICCWSAYYNSAMNPLIYALFYPWFRKAIKLILSGDVLKASSSTISLFLE [TAAR8] | – | 352 ± 170 | –
MPNNSTALSLANVTYITMEIFIGLCAIVGNVLVICVVKLNPSLQTTTFYFIVSLALADIAVGVLVMPLAIVVSLGITIHFYSCLFMTCLLLIFTHASIMSLLAIAVDRYLRVKLTVRYKRVTTHRRIWLALGLCWLVSFLVGLTPMFGWNMKLTSEYHRNVTFLSCQFVSVMRMDYMVYFSFLTWIFIPLVVMCAIYLDIFYIIRNKLSLNLSNSKETGAFYGREFKTAKSLFLVLFLFALSWLPLSIINCIIYFNGEVPQLVLYMGILLSHANSMMNPIVYAYKIKKFKETYLLILKACVVCHPSDSLDTSIEKNSE [ADORA3] | – | 5830 ± 110 | –
MGFLSPMHPCRPPTQRRMAAGNHSTVTEFILKGLTKRADLQLPLFLLFLGIYLVTIVGNLGMITLICLNSQLHTPMYYFLSNLSLMDLCYSSVITPKMLVNFVSEKNIISYAGCMSQLYFFLVFVIAECYMLTVMAYDRYVAICHPLLYNIIMSHHTCLLLVAVVYAIGLIGSTIETGLMLKLPYCEHLISHYFCDILPLMKLSCSSTYDVEMTVFFSAGFNIIVTSLTVLVSYTFILSSILGISTTEGRSKAFSTCSSHLAAVGMFYGSTAFMYLKPSTISSLTQENVASVFYTTVIPMLNPLIYSLRNKEVKAAVQKTLRGKLF [OR8A1] | 191 ± 82 | – | –
METPNTTEDYDTTTEFDYGDATPCQKVNERAFGAQLLPPLYSLVFVIGLVGNILVVLVLVQYKRLKNMTSIYLLNLAISDLLFLFTLPFWIDYKLKDDWVFGDAMCKILSGFYYTGLYSEIFFIILLTIDRYLAIVHAVFALRARTVTFGVITSIIIWALAILASMPGLYFSKTQWEFTHHTCSLHFPHESLREWKLFQALKLNLFGLVLPLLVMIICYTGIIKILLRRPNEKKSKAVRLIFVIMIIFFLFWTPYNLTILISVFQDFLFTHECEQSRHLDLAVQVTEVIAYTHCCVNPVIYAFVGERFRKYLRQLFHRRVAVHLVKWLPFLSVDRLERVSSTSPSTGEHELSAGF [CCR1] | – | 5560 ± 180 | –
MTPTDFTSPIPNMADDYGSESTSSMEDYVNFNFTDFYCEKNNVRQFASHFLPPLYWLVFIVGALGNSLVILVYWYCTRVKTMTDMFLLNLAIADLLFLVTLPFWAIAAADQWKFQTFMCKVVNSMYKMNFYSCVLLIMCISVDRYIAIAQAMRAHTWREKRLLYSKMVCFTIWVLAAALCIPEILYSQIKEESGIAICTMVYPSDESTKLKSAVLTLKVILGFFLPFVVMACCYTIIIHTLIQAKKSSKHKALKVTITVLTVFVLSQFPYNCILLVQTIDAYAMFISNCAVSTNIDICFQVTQTIAFFHSCLNPVLYVFVGERFRRDLVKTLKNLGCISQAQWVSFTRREGSLKLSSMLLETTSGALSL [CCR9] | – | 4060 ± 290 | –
MNGDHMVLGSSVTDKKAIILVTILLLLRLVAIAGNGFITAALGVEWVLRRMLLPCDKLLVSLGASRFCLQSVVMGKTIYVFLHPMAFPYNPVLQFLAFQWDFLNAATLWSSTWLSVFYCVKIATFTHPVFFWLKHKLSGWLPWMLFSSVGLSSFTTILFFIGNHRMYQNYLRNHLQPWNVTGDSIRSYCEKFYLFPLKMITWTMPTAVFFICMILLITSLGRHRKKALLTTSGFREPSVQAHIKALLALLSFAMLFISYFLSLVFSAAGIFPPLDFKFWVWESVIYLCAAVHPIILLFSNCRLRAVLKSRRSSRCGTP [TAS2R60] | – | – | plasma membrane surface immunostaining intensity (GPCR class: Taste): 137 ± 36
MKSPFYRCQNTTSVEKGNSAVMGGVLFSTGLLGNLLALGLLARSGLGWCSRRPLRPLPSVFYMLVCGLTVTDLLGKCLLSPVVLAAYAQNRSLRVLAPALDNSLCQAFAFFMSFFGLSSTLQLLAMALECWLSLGHPFFYRRHITLRLGALVAPVVSAFSLAFCALPFMGFGKFVQYCPGTWCFIQMVHEEGSLSVLGYSVLYSSLMALLVLATVLCNLGAMRNLYAMHRRLQRHPRSCTRDCAEPRADGREASPQPLEELDHLLLLALMTVLFTMCSLPVIYRAYYGAFKDVKEKNRTSEEAEDLRALRFLSVISIVDPWIFIIFRSPVFRIFFHKIFIRPLRYRSRCSNSTNMESSL [PTGDR] | – | 6000 ± 81 | –
MLNTTSVTEFLLLGVTDIQELQPFLFVVFLTIYFISVTGNGAVLMIVISDPRLHSLMYFFLGNLSYLDICYSTVTLPKMLQNFLSTHKAISFLGCISQLHFFHSLGSTESMLFAVMAFDLSVAICKPLRYTVIMNPQLCTQMAITIWVIGFFHALLHSVMTSRLNFCGSNRIHHFLCDIKPLLKLACGNTELNQWLLSTVTGTIAMGPFFLTLLSYFYIITYLFFKTRSCSMLCKALSTCASHFMVVILFYAPVLFTYIHPALESFMDQDRIVAIMYTVVTPVLNPLIYTLRNKEVKGALGRVIRRL [OR12D2] | 126 ± 22 | – | –
MQPESGANGTVIAEFILLGLLEAPGLQPVVFVLFLFAYLVTVRGNLSILAAVLVEPKLHTPMYFFLGNLSVLDVGCISVTVPSMLSRLLSRKRAVPCGACLTQLFFFHLFVGVDCFLLTAMAYDRFLAICRPLTYSTRMSQTVQRMLVAASWACAFTNALTHTVAMSTLNFCGPNVINHFYCDLPQLFQLSCSSTQLNELLLFAVGFIMAGTPMALIVISYIHVAAAVLRIRSVEGRKKAFSTCGSHLTVVAIFYGSGIFNYMRLGSTKLSDKDKAVGIFNTVINPMLNPIIYSFRNPDVQSAIWRMLTGRRSLA [OR3A1] | 125 ± 18 | – | –
MSIMMLPMEQKIQWVPTSLQDITAVLGTEAYTEEDKSMVSHAQKSQHSCLSHSRWLRSPQVTGGSWDLRIRPSKDSSSFRQAQCLRKDPGANNHLESQGVRGTAGDADRELRGPSEKATAGQPRVTLLPTPHVSGLSQEFESHWPEIAERSPCVAGVIPVIYYSVLLGLGLPVSLLTAVALARLATRTRRPSYYYLLALTASDIIIQVVIVFAGFLLQGAVLARQVPQAVVRTANILEFAANHASVWIAILLTVDRYTALCHPLHHRAASSPGRTRRAIAAVLSAALLTGIPFYWWLDMWRDTDSPRTLDEVLKWAHCLTVYFIPCGVFLVTNSAIIHRLRRRGRSGLQPRVGKSTAILLGITTLFTLLWAPRVFVMLYHMYVAPVHRDWRVHLALDVANMVAMLHTAANFGLYCFVSKTFRATVRQVIHDAYLPCTLASQPEGMAAKPVMEPPGLPTGAEV [GPR142] | – | 165 ± 58 | –
MGNWSTVTEITLIAFPALLEIRISLFVVLVVTYTLTATGNITIISLIWIDHRLQTPMYFFLSNLSFLDILYTTVITPKLLACLLGEEKTISFAGCMIQTYFYFFLGTVEFILLAVMSFDRYMAICDPLHYTVIMNSRACLLLVLGCWVGAFLSVLFPTIVVTRLPYCRKEINHFFCDIAPLLQVACINTHLIEKINFLLSALVILSSLAFTTGSYVYIISTILRIPSTQGRQKAFSTCASHITVVSIAHGSNIFVYVRPNQNSSLDYDKVAAVLITVVTPLLNPFIYSLRNEKVQEVLRETVNRIMTLIQRKT [OR6M1] | 127 ± 27 | – | –
